Paper PMC7948466

Legend:
DNMT3A full length = DNMT3A full length (Homo sapiens, UniProt Q9Y6K1 1-912); assay: fluorescence anisotropy; unlabeled H3K4me0 peptide (1-21) titrated; 50 nM DNA, 1 uM DNMT3A; FA increases; Fluorescence anisotropy (ex 485 nm, em 520 nm), 5 min incubation at room temperature; binding buffer, salt and pH not given in the material
DNMT3A full length;TDG = DNMT3A full length;TDG (Homo sapiens;Homo sapiens, UniProt Q9Y6K1;Q13569 1-912;1-410, |); assay: fluorescence anisotropy; unlabeled H3K4me0 peptide titrated; 50 nM DNA, 1 uM 1:1 complex; FA increases; Fluorescence anisotropy (ex 485 nm, em 520 nm), 5 min incubation at room temperature; binding buffer, salt and pH not given in the material
DNMT3A full length;p53 = DNMT3A full length;p53 (Homo sapiens;Homo sapiens, UniProt Q9Y6K1;P04637 1-912;1-393, |); assay: as above

Measured: binding result

Chain of DNMT3A full length (Q9Y6K1 whole entry): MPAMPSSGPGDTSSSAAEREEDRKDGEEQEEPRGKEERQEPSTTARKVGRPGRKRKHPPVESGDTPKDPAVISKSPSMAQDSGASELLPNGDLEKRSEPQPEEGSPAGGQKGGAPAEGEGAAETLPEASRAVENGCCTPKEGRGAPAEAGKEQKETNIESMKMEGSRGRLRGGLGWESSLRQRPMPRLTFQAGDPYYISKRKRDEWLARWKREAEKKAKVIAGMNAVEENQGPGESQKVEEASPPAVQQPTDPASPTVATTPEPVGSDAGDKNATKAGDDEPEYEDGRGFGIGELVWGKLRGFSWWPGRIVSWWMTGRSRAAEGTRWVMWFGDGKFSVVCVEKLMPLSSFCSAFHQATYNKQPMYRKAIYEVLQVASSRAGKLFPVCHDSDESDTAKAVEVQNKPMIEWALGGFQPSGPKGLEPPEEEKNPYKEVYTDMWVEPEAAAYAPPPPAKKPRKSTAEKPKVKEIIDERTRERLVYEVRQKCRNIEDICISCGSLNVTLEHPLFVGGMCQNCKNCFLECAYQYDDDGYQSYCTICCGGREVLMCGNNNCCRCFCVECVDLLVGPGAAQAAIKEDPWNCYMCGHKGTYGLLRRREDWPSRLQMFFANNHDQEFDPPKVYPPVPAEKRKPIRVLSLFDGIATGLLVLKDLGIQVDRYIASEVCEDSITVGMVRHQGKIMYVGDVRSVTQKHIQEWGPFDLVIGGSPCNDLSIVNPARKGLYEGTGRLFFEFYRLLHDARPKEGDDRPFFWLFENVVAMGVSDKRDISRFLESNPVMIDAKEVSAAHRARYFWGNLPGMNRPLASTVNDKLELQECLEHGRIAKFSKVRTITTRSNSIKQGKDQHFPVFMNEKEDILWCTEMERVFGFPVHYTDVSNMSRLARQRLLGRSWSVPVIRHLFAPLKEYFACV
Chain of DNMT3A full length;TDG (Q9Y6K1 whole entry, chain 1 of 2): as the sequence (Q9Y6K1 whole entry) above
Chain of DNMT3A full length;TDG (Q13569 whole entry, chain 2 of 2): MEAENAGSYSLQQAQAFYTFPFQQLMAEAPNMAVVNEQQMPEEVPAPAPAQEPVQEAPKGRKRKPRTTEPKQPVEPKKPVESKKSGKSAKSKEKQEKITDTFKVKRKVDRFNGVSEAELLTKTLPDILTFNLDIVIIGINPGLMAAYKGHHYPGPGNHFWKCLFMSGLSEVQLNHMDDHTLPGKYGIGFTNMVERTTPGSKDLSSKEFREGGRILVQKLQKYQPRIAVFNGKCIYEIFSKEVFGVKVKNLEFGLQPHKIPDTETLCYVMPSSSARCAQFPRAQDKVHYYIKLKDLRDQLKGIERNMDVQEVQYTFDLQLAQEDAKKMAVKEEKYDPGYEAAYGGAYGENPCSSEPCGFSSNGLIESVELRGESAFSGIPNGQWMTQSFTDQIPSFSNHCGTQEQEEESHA

B1: GCbox30 (dsDNA)
DNA 1: TGGATATCTAGGGGCGCTATGATATCT
DNA 2: AGATATCATAGCGCCCCTAGATATCCA
binds: DNMT3A full length | DNMT3A full length;TDG | DNMT3A full length;p53
